In assay [1] the target is human CD25 (human IL-2 receptor) on human CD25+ T-cell lymphoma cells HUT 102/6TG (human) (UniProt P01589). Nature of the assay: cell-based or functional assay.
Assay [2] shares this target.
The target is the same in assay [3]. Nature of the assay: flow cytometry on HUT 102/6TG cells. On the technique in general: A flow cytometer gives signals particle by particle.

Chain of human CD25 (human IL-2 receptor) on human CD25+ T-cell lymphoma cells HUT 102/6TG (human) (P01589 22-272): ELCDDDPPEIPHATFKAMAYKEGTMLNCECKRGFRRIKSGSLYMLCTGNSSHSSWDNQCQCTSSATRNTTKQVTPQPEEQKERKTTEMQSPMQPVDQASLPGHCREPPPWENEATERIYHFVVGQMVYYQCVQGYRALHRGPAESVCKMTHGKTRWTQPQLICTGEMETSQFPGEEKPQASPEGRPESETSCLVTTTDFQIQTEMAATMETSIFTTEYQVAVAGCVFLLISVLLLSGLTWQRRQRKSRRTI

“bivalent human IL-2 fusion toxin (DT390-bi-hIL-2-6xHis)” gave an IC50 of protein synthesis inhibition (3H-leucine) in HUT 102/6TG cells in assay [1] of 0.0002 nM. The term Kd denotes the free concentration of one partner at which half of the binding sites on the other are occupied at equilibrium, for simple one-to-one binding. In turn, “bivalent human IL-2 fusion toxin (DT390-bi-hIL-2-6xHis) (other; other documents disagree on this pair)” showed a Kd in assay [2] of 0.21 nM. In addition, the affinity against the monovalent isoform (DT390-hIL-2) in assay [3] was 2 logs.

In turn, “monovalent human IL-2 fusion toxin (DT390-hIL-2-6xHis)” had an IC50 of protein synthesis inhibition (3H-leucine) in HUT 102/6TG cells in assay [1] of 0.02 nM.

For “monovalent human IL-2 fusion toxin (DT390-hIL-2-6xHis) (other; other documents disagree on this pair)”, the Kd in assay [2] was found to be 15.9 nM.

The values above are taken from patent US20160030526A1.
